Patent US20230065562A1, “DUAL CONTROLS FOR THERAPEUTIC CELL ACTIVATION OR ELIMINATION” (Bellicum Pharmaceuticals, Inc., priority 2015, published 2023)

B1: D330A-S183A: modified iCasp9 double mutant (protein, UniProt P55211 1-416, looked up, variant D330A S183A)
chain: MDEADRRLLRRCRLRLVEELQVDQLWDALLSRELFRPHMIEDIQRAGSGSRRDQARQLIIDLETRGSQALPLFISCLEDTGQDMLASFLRTNRQAAKLSKPTLENLTPVVLRPEIRKPEVLRPETPRPVDIGSGGFGDVGALESLRGNADLAYILSMEPCGHCLIINNVNFCRESGLRTRTGANIDCEKLRRRFSSLHFMVEVKGDLTAKKMVLALLELAQQDHGALDCCVVVILSHGCQASHLQFPGAVYGTDGCPVSVEKIVNIFNGTSCPSLGGKPKLFFIQACGGEQKDHGFEVASTSPEDESPGSNPEPDATPFQEGLRTFDQLAAISSLPTPSDIFVSYSTFPGFVSWRDPKSGSWYVETLDDIFEQWAHSEDLQSLLLRVANAVSVKGIYKQMPGCFNFLRKKLFFKTS
modifications: FKBP12-F36V fusion (iCasp9), CARD deleted
notes: modified iCasp9 double mutant
B2: N405Q-S144D: modified iCasp9 double mutant (protein, UniProt P55211 1-416, looked up, variant N405Q S144D)
chain: MDEADRRLLRRCRLRLVEELQVDQLWDALLSRELFRPHMIEDIQRAGSGSRRDQARQLIIDLETRGSQALPLFISCLEDTGQDMLASFLRTNRQAAKLSKPTLENLTPVVLRPEIRKPEVLRPETPRPVDIGSGGFGDVGALEDLRGNADLAYILSMEPCGHCLIINNVNFCRESGLRTRTGSNIDCEKLRRRFSSLHFMVEVKGDLTAKKMVLALLELAQQDHGALDCCVVVILSHGCQASHLQFPGAVYGTDGCPVSVEKIVNIFNGTSCPSLGGKPKLFFIQACGGEQKDHGFEVASTSPEDESPGSNPEPDATPFQEGLRTFDQLDAISSLPTPSDIFVSYSTFPGFVSWRDPKSGSWYVETLDDIFEQWAHSEDLQSLLLRVANAVSVKGIYKQMPGCFQFLRKKLFFKTS
modifications: FKBP12-F36V fusion (iCasp9), CARD deleted
notes: modified iCasp9 double mutant
B3: D330A-Y153F: modified iCasp9 double mutant (protein, UniProt P55211 1-416, looked up, variant D330A Y153F)
chain: MDEADRRLLRRCRLRLVEELQVDQLWDALLSRELFRPHMIEDIQRAGSGSRRDQARQLIIDLETRGSQALPLFISCLEDTGQDMLASFLRTNRQAAKLSKPTLENLTPVVLRPEIRKPEVLRPETPRPVDIGSGGFGDVGALESLRGNADLAFILSMEPCGHCLIINNVNFCRESGLRTRTGSNIDCEKLRRRFSSLHFMVEVKGDLTAKKMVLALLELAQQDHGALDCCVVVILSHGCQASHLQFPGAVYGTDGCPVSVEKIVNIFNGTSCPSLGGKPKLFFIQACGGEQKDHGFEVASTSPEDESPGSNPEPDATPFQEGLRTFDQLAAISSLPTPSDIFVSYSTFPGFVSWRDPKSGSWYVETLDDIFEQWAHSEDLQSLLLRVANAVSVKGIYKQMPGCFNFLRKKLFFKTS
modifications: FKBP12-F36V fusion (iCasp9), CARD deleted
notes: modified iCasp9 double mutant
B4: N405Qco: codon-optimized version of N405Q modified Caspase-9 (protein, UniProt P55211 1-416, looked up, variant N405Q)
chain: MDEADRRLLRRCRLRLVEELQVDQLWDALLSRELFRPHMIEDIQRAGSGSRRDQARQLIIDLETRGSQALPLFISCLEDTGQDMLASFLRTNRQAAKLSKPTLENLTPVVLRPEIRKPEVLRPETPRPVDIGSGGFGDVGALESLRGNADLAYILSMEPCGHCLIINNVNFCRESGLRTRTGSNIDCEKLRRRFSSLHFMVEVKGDLTAKKMVLALLELAQQDHGALDCCVVVILSHGCQASHLQFPGAVYGTDGCPVSVEKIVNIFNGTSCPSLGGKPKLFFIQACGGEQKDHGFEVASTSPEDESPGSNPEPDATPFQEGLRTFDQLDAISSLPTPSDIFVSYSTFPGFVSWRDPKSGSWYVETLDDIFEQWAHSEDLQSLLLRVANAVSVKGIYKQMPGCFQFLRKKLFFKTS
modifications: FKBP12-F36V fusion (iCasp9), codon-optimized
B5: Y153A: modified iCasp9, Y153A (protein, UniProt P55211 1-416, looked up, variant Y153A)
chain: MDEADRRLLRRCRLRLVEELQVDQLWDALLSRELFRPHMIEDIQRAGSGSRRDQARQLIIDLETRGSQALPLFISCLEDTGQDMLASFLRTNRQAAKLSKPTLENLTPVVLRPEIRKPEVLRPETPRPVDIGSGGFGDVGALESLRGNADLAAILSMEPCGHCLIINNVNFCRESGLRTRTGSNIDCEKLRRRFSSLHFMVEVKGDLTAKKMVLALLELAQQDHGALDCCVVVILSHGCQASHLQFPGAVYGTDGCPVSVEKIVNIFNGTSCPSLGGKPKLFFIQACGGEQKDHGFEVASTSPEDESPGSNPEPDATPFQEGLRTFDQLDAISSLPTPSDIFVSYSTFPGFVSWRDPKSGSWYVETLDDIFEQWAHSEDLQSLLLRVANAVSVKGIYKQMPGCFNFLRKKLFFKTS
modifications: FKBP12-F36V fusion (iCasp9), CARD deleted
B6: D330A-T317E: modified iCasp9 double mutant (protein, UniProt P55211 1-416, looked up, variant D330A T317E)
chain: MDEADRRLLRRCRLRLVEELQVDQLWDALLSRELFRPHMIEDIQRAGSGSRRDQARQLIIDLETRGSQALPLFISCLEDTGQDMLASFLRTNRQAAKLSKPTLENLTPVVLRPEIRKPEVLRPETPRPVDIGSGGFGDVGALESLRGNADLAYILSMEPCGHCLIINNVNFCRESGLRTRTGSNIDCEKLRRRFSSLHFMVEVKGDLTAKKMVLALLELAQQDHGALDCCVVVILSHGCQASHLQFPGAVYGTDGCPVSVEKIVNIFNGTSCPSLGGKPKLFFIQACGGEQKDHGFEVASTSPEDESPGSNPEPDAEPFQEGLRTFDQLAAISSLPTPSDIFVSYSTFPGFVSWRDPKSGSWYVETLDDIFEQWAHSEDLQSLLLRVANAVSVKGIYKQMPGCFNFLRKKLFFKTS
modifications: FKBP12-F36V fusion (iCasp9), CARD deleted
notes: modified iCasp9 double mutant
B7: S307A: modified iCasp9, S307A (protein, UniProt P55211 1-416, looked up, variant S307A)
chain: MDEADRRLLRRCRLRLVEELQVDQLWDALLSRELFRPHMIEDIQRAGSGSRRDQARQLIIDLETRGSQALPLFISCLEDTGQDMLASFLRTNRQAAKLSKPTLENLTPVVLRPEIRKPEVLRPETPRPVDIGSGGFGDVGALESLRGNADLAYILSMEPCGHCLIINNVNFCRESGLRTRTGSNIDCEKLRRRFSSLHFMVEVKGDLTAKKMVLALLELAQQDHGALDCCVVVILSHGCQASHLQFPGAVYGTDGCPVSVEKIVNIFNGTSCPSLGGKPKLFFIQACGGEQKDHGFEVASTSPEDEAPGSNPEPDATPFQEGLRTFDQLDAISSLPTPSDIFVSYSTFPGFVSWRDPKSGSWYVETLDDIFEQWAHSEDLQSLLLRVANAVSVKGIYKQMPGCFNFLRKKLFFKTS
modifications: FKBP12-F36V fusion (iCasp9), CARD deleted
B8: ^402GCFNF^406QPTFT: modified iCasp9, residues 402-406 replaced by Caspase-8 QPTFT (protein, UniProt P55211 1-416, looked up, variant G402Q C403P F404T N405F F406T)
chain: MDEADRRLLRRCRLRLVEELQVDQLWDALLSRELFRPHMIEDIQRAGSGSRRDQARQLIIDLETRGSQALPLFISCLEDTGQDMLASFLRTNRQAAKLSKPTLENLTPVVLRPEIRKPEVLRPETPRPVDIGSGGFGDVGALESLRGNADLAYILSMEPCGHCLIINNVNFCRESGLRTRTGSNIDCEKLRRRFSSLHFMVEVKGDLTAKKMVLALLELAQQDHGALDCCVVVILSHGCQASHLQFPGAVYGTDGCPVSVEKIVNIFNGTSCPSLGGKPKLFFIQACGGEQKDHGFEVASTSPEDESPGSNPEPDATPFQEGLRTFDQLDAISSLPTPSDIFVSYSTFPGFVSWRDPKSGSWYVETLDDIFEQWAHSEDLQSLLLRVANAVSVKGIYKQMPQPTFTLRKKLFFKTS
modifications: FKBP12-F36V fusion (iCasp9), CARD deleted
notes: modified iCasp9, residues 402-406 replaced by Caspase-8 QPTFT
B9: D330A-S196A: modified iCasp9 double mutant (protein)
chain: VDGFGDVGALESLRGNADLAYILSMEPCGHCLIINNVNFCRESGLRTRTGSNIDCEKLRRRFSALHFMVEVKGDLTAKKMVLALLELARQDHGALDCCVVVILSHGCQASHLQFPGAVYGTDGCPVSVEKIVNIFNGTSCPSLGGKPKLFFIQACGGEQKDHGFEVASTSPEDESPGSNPEPDATPFQEGLRTFDQLAAISSLPTPSDIFVSYSTFPGFVSWRDPKSGSWYVETLDDIFEQWAHSEDLQSLLLRVANAVSVKGIYKQMPGCFNFLRKKLFFKTSASRA
B10: S144A: modified iCasp9, S144A (protein)
chain: VDGFGDVGALEALRGNADLAYILSMEPCGHCLIINNVNFCRESGLRTRTGSNIDCEKLRRRFSSLHFMVEVKGDLTAKKMVLALLELARQDHGALDCCVVVILSHGCQASHLQFPGAVYGTDGCPVSVEKIVNIFNGTSCPSLGGKPKLFFIQACGGEQKDHGFEVASTSPEDESPGSNPEPDATPFQEGLRTFDQLDAISSLPTPSDIFVSYSTFPGFVSWRDPKSGSWYVETLDDIFEQWAHSEDLQSLLLRVANAVSVKGIYKQMPGCFNFLRKKLFFKTSASRA
B11: N405Q-S144A: modified iCasp9 double mutant (protein)
chain: VDGFGDVGALEALRGNADLAYILSMEPCGHCLIINNVNFCRESGLRTRTGSNIDCEKLRRRFSSLHFMVEVKGDLTAKKMVLALLELARQDHGALDCCVVVILSHGCQASHLQFPGAVYGTDGCPVSVEKIVNIFNGTSCPSLGGKPKLFFIQACGGEQKDHGFEVASTSPEDESPGSNPEPDATPFQEGLRTFDQLDAISSLPTPSDIFVSYSTFPGFVSWRDPKSGSWYVETLDDIFEQWAHSEDLQSLLLRVANAVSVKGIYKQMPGCFQFLRKKLFFKTSASRA
B12: N405Q-S144Aco: codon-optimized double mutant, class predicted (protein, UniProt P55211 1-416, looked up, variant N405Q S144A)
chain: MDEADRRLLRRCRLRLVEELQVDQLWDALLSRELFRPHMIEDIQRAGSGSRRDQARQLIIDLETRGSQALPLFISCLEDTGQDMLASFLRTNRQAAKLSKPTLENLTPVVLRPEIRKPEVLRPETPRPVDIGSGGFGDVGALEALRGNADLAYILSMEPCGHCLIINNVNFCRESGLRTRTGSNIDCEKLRRRFSSLHFMVEVKGDLTAKKMVLALLELAQQDHGALDCCVVVILSHGCQASHLQFPGAVYGTDGCPVSVEKIVNIFNGTSCPSLGGKPKLFFIQACGGEQKDHGFEVASTSPEDESPGSNPEPDATPFQEGLRTFDQLDAISSLPTPSDIFVSYSTFPGFVSWRDPKSGSWYVETLDDIFEQWAHSEDLQSLLLRVANAVSVKGIYKQMPGCFQFLRKKLFFKTS
modifications: FKBP12-F36V fusion (iCasp9), codon-optimized
notes: codon-optimized double mutant, class predicted

What follows are molecules tested on HEK293T/16 cells (assay: Secreted alkaline phosphatase (SEAP)-based surrogate killing assay of iCasp9 mutants). Details: SEAP assay without AP1903.
Assay type: cell-based, human

Molecule	Basal Activity (relative to wild type/unmodified Caspase-9)
B1	Decreased
B2	Decreased
B3	dead
B4	Decreased
B5	Decreased
B6	dead
B7	Decreased
B8	dead
B9	Decreased
B10	Decreased
B11	Decreased

Same assay, conditions: marked '*, predicated'

Molecule	Basal Activity (relative to wild type), predicted mutants (*)
B12	Decreased
